This series can be described thus: soluble on expression in E. coli; label from the status in PepcDB or PDB records.
As to “MSLSFNADEVRFLIDNLPDIDAATGDLALTKKTMISDVAALRARFGEHGRAVAELAGARRSVAGKLPVDWLMCHDSAQQATPMQVSGVRARRLVTALGEGTTAVDVTCSIGTEGHAVGQVGMGYIGSDLDQARLLMARYNLGGGVDKHPPHLLRADALAPAVTGADVIIADPARRAGGRRITDPAQLLPPLPDLLTAWEGHAMAVKCAPGLDFSGWTGLVSLVSVDGGVKEACLYTPDLADGETREAVILRGDRMDRITDALDDAPGEQLAREPGEFIIDPDGAVVRAGLVRHYAVREGLWMLDERIAYLTGDRIPAGTSGFRFIEQVPLKKLKGALTAHGAGSVEILVRGVDVDPDQLRKKLGLKGDRAMSVVITRIGSAGVALVCGAREWNGEGHHHHHH”, the “soluble on expression in E. coli” value is recorded as “soluble”.

With “GSDTPSNLMGKQQWKALVEEAIHSDWVKFRFQAAKNTWGKVFHNEVFSSIEKDGETYRANQYLFALEQLDATNIFDQYVIESMIKMLESGELNDPVAINIAQSSLSQPSFIRWTTNMLEKHSKVASKLHFEIPEECFIDHPHHTALLCNAIRQSGAEFGVDNYGRNFQSLEYIQEFRPNYVKLDYLFTHNLHDEKQKFTLTSISRTAHNLGITTIASRIETQIQLDFLTEHFVEVFQGFIVDKE”, the “soluble on expression in E. coli” value was “not soluble”.

On to “MAKRYVGSCTTVLVGKKASIDGSTIIARNEDGESPLHPQKFVYVKPEDQPRHYQSVLSKFAIDLPADPLGYTATPEAEDGHGIWAAAGINSENIAMTSTETITTNSRVLGVDPLVAAGIGEEDMPTIVLPYIHSARDGVQRLGSLLEQYGTYESNGIAFADKDEVWYFESIGGHHWAAIRIPDDAYVVAPNRFNITDFDFASDDTMSSADLRDLIETYHLNPDTEGYNLRHIFGSATIKDTRYNNPRTWYGQKYFNPEFNTTPIDQDLPFICRTSKKISIEDVKFVESSHYENTPYDVYGTTGTPAQKKLYRPIGINRNQELHILQIRNNVPAAVAGIHWLAFGPNTFNAVVPFYANVNDTPAAYRETGDKFDVTKMYWLSNLLATFGDYDFSLFKDQEDVFEQKTVAACRHLQLTTDEAVKDAKDIGDHLTAANEQMATIAMANSNELLGQMVAAAAPKMKLQFTLHDLEHHHHHH”, for which the “soluble on expression in E. coli” value is recorded as “not soluble”.

Regarding “MGSDKIHHHHHHMKLNFTGHTDPGLIRSNNQDDYYIDPEGRFFIVADGMGGHAGGEEASRIATREIKAYLTANWDVSKPSSELLEQALWQANEAILQDQQNHPERADMGTTAVVVIFRNDEQWCAHVGDSRLYRLRETQLEQVTEDHTWVARAIKIGDITAEEARVHPFRHVLSRCLGREDLHQVDVQPLDTKIGDRLLLCSDGLTEELPDQKIAHNLQINSLLDQSALSLVEDAKEQGGHDNITVVIVALE”, the “soluble on expression in E. coli” value is reported as “not soluble”.

Take “MGSDKIHHHHHHMLQTINLTQRYATKKLFENVNIKLDKNKRYGLIGANGAGKSTFLKILSKSIDCSSGEVIITSGMKMGVLGQDQYAFEDLSLKDAVLIGNKRLYDAIKEKERLYTEGDLSDDKVNARLGELETICVEEDPMYECEVAIEKILEDLGIPSSKHNDLMKTLPSSDKFKILLAQVLFPKPDILLLDEPTNNLDLNAIEWLENNLKRHEGTMVVISHDRHFLNAVCTHILDLDFHSVREFSGNYDDWYIASTLIAKQQEAERNKKLKEKEELEKFIARFSANASKAKQATSRQKQLDKLDIQSLAVSSRRDPSIIFKPKRTIGNEALECENISKSYDDQIVLNQVSLKVMPKDKIALIGPNGVGKSTLCKILVEELKPDKGVVKWGATVSKGYFPQNVSEEISGEETLYQWLFNFNKKIESAEVRNALGRMLFNGEEQEKCVNALSGGEKHRMVLSKLMLEGGNFLVLDEPTNHLDLEAIIALGEALFKFDGALICVSHDRELIDAYANRIIELVPSPKGASIIDFKGSYEEYLASKK”: the “soluble on expression in E. coli” value is on record as “not soluble”.

“MSLSAHVEYFKPPAESELPDNAYGKLVREGYALFVDTKRLAPQFVGNGLNCSNCHLDQGRLANSAPLWGAYPMYPAYRKKNDKVNTFAERLQGCFQFSMNGGKPPAADSPQITALSVYAYWLASKAPLGVELPGRGYPDVAQPAKGYDLKQGAAVYQAQCAVCHGDNGQGQKAGADYVMPPLWGKDSYNWGAGMHRINTAASFIKHNMPLGKGGSLSDQQAWDVAAFVNSHERPQDPRLVEGSIEKTRVKFHANDGVNLYGQTVEGVLIGQGIREGHHHHHH”: the “soluble on expression in E. coli” value was “not soluble”.

“MIQFNQVSKSYEDGTKAVDSLHLEIKKGEFFVLIGPSGCGKTTTMKMINRLIETTEGSILIDGKDIQQYNINELRWDIGYVLQQIALFPHMTIAENIAVVPEMRKWSKEKIKARVDELLQMVGLDPDVYRNRMPDELSGGQKQRIGVVRALAANPKIVLMDEPFSALDPLSREQLQKDIVQLQKKIQKTIVFVTHDMQEALSLGDRICIMKEGKVVQLDTPEGIIHNPKNEFVEEFIGNRGRPWYEGKSIEDVLPLDESIRIEGEALSLHSSLQEALVRLRADEVVPVEEKGRYVGALTSRHIVNYIVEQMKERG”: the “soluble on expression in E. coli” value was “not soluble”.

As for “MGSDKIHHHHHHMCQHSIANIDINKDYDESLGTEEVHYQSFSRMAAFFGRDMQAHRHDRYFQMHYLDTGQIELQLDDHRYSVQAPLFVITPPSVPHAFITESDSDGHVLTVHEELIWPLLEVLYPGTRETFGLPGICLSLADKPDELAALAHYWQLIRRESTAQLPGREHTLALLAQAVFTLLLRNAKLDDHAASGMRGELKLFQRFNQMIDSHYHQHWTVPDYARELHLTESRLTDICRRFANRPPKRLIFDRQLREAKRLLLFSDSAVNEIAWQLGFKDPAYFARFFSRQVGCSPSSYRAQKVPVS”, the “soluble on expression in E. coli” value was “not soluble”.

In the case of “MEVVRIPEFKEKTAPGAYYQQPAIDGSRPGRFYANLFDIKATPKYGMRTLAYHEGIPGHHFQVAVAMELEGQPLIRKMAPFTAYIEGWALYSERVAWELGFQQDPFDNIGRLQAELFRAVRLVVDTGIHHSRWTREQAIDYMKKNTGMSDRDVTAEIERYIVMPGQATAYKVGMMKILELREKAKQALGDKFDLRDFHDVVLKNGAVPLDILEKLVDRYIADKRSQA”, the “soluble on expression in E. coli” value is on record as “not soluble”.

Turning to “MKVIETNFTDAKLLEPRLFGDDRGFFTESYNKKVLETLGVTHSFVQDNVSYSAEAGTIRGLHFQKNPKAQTKLIQVMQGAIYDVIVDLRKDSPTFKQWRGYILSADNHRQLLVPKGFAHGFCTLVPHTIVMYKVDEYYSADHDSGVLWNDKELAIPWPVTSPILSDKDRILPLLQECEDSF”, the “soluble on expression in E. coli” value was “not soluble”.

On to “GAMAVKVARPCRKIEKWTYLELKGSKANEGVPQAMTAFAEFLNRTGIPINPRFSPGMSMSVPGSEKEFFAKVKELMSSHQFVVVLLPRKDVAIYNMVKRAADITFGVHTVCCVAEKFLSTKGQLGYFANVGLKVNLKFGGTNHNI”, for which the “soluble on expression in E. coli” value is “soluble”.

For the sequence “MAVARWLRDHSGPDDVVATNAHCRFAVSDSCDNRHFWISGYTERRVLVEGWGYTARTLASLTDVDREPMGAVPFWDAELLAANDAVFTAPTARAVDLLARRYGVRWLMVDRRRPLTAPDLGQFARLRYARGSFAVYSTLS”, the “soluble on expression in E. coli” value is given as “not soluble”.

Consider “SNAMSQKLYNMKFAAVYLALIAKVERKGGKAESVHQVTSWLTGYEVSDVLACLDRDVTYGDFFRQAPYYVPERIAITGKICGVRIEEIDDPLMQEIRRLDKLVDWLAKGKTSQQVLEKYEKHK”, for which the “soluble on expression in E. coli” value is “soluble”.

Regarding “MGSDKIHHHHHHMEIIAGYRTTSDSRYIALIKADGNNAGKIFGNTVTFSEYVDKSFRLDFGVKKMFYDTLLDIMRASSDESIKKDLVSRILLGVLYLGGDDIMLLSPSAIAVPFAVKMFKRSLEYTGFTFKVGIISVKPDHPVQFAYGAVNALMEESKIHTGEKSSIGVLVFSSTLASEGVVKSDLKNYRKEKESFLVVSNDVDDVERLLNLMELDDFGKLMELYWNPEEGRKVIRDKIRSLERFVNYADTHDFYNTLAYLIRSKAKSEENSLIKRIIDLTIKGRDDFVFPLYDYYFILKSIRVGI”, the “soluble on expression in E. coli” value is listed as “not soluble”.

For the sequence “MGSDKIHHHHHHVPGLLPDVDREGLLEYSVVYTDRSLNHMSQLFQGVMRDISNSLKKVYNAKSAVVVPGSGTFGMEAVARQFATNRKCLVIRNGWFSYRWTQIFDMGGIPSESIVLKARPVEEGRQAAYAPPPIEEVVAAIRENKPDLVFAPHVETASGIMLPDAYLRAVADAVHAVDGMFVLDCIASGTVWVDMKASGVDVLISAPQKGWSASPCCGLVMLGELARERIEGTTSTSFACDLRKWLQIMEAYENGGFAYHATMPTDGLATLRDVMKETEAYGFDKVRAEQVELGRRVRSVLADRGFRSVAAEGFEAPGVVVSYTDDDGIRSGKKFADAGLQIAAGVPLQCDEPQDFKTFRIGLFGLDKLHDVEGAVGRFVKGLGSIL”, the “soluble on expression in E. coli” value is listed as “not soluble”.

For “MGSDKIHHHHHHMQERGLVGLGLRREMLSEFCQQLPSAIDFLEVAPENWMTLGGKYGKQFRQLTEQHTFFCHGLSLSIGSPEPLDLEFVRRIKAFMDLHQIDVYSEHLSYCSGAGHLYDLMPIPFTEAAVKHVARRVKQVEDILYRPLILENVSFYAAPSAQMTELAFLTAVLEEADCKLLLDVNNIYVNSINHQYDALAFLKAMPTERIAYLHIAGHFKESEELLIDTHGSDINAPVWALLDSCYAEHGVLPTLLERDFNLPATAHLLDEINQIHAYQARAKSNLDKRIA”, the “soluble on expression in E. coli” value was “not soluble”.

As for “MGSDKIHHHHHHMRFYPWLQWLKRKTAGAGCVHQFIQTQCPAPAESGTQEPPPAEQDTQTESNAMPSLALRIGDKNFRATLYDNDSTRSLLKKLPLTLTMDELNGNEKFYFFSEKLPSASERVGSIKTGDLMLYGSDCLVLFYESFPTSYSYTRLGTVDDVTGLANALGSGSVEVTFSIN”, the “soluble on expression in E. coli” value is “not soluble”.

For “MSLARSRARVETIAELERTNAALQQALDENAALHAQLLVQAREAGVADERRRLAAEIHDTLAQGLTGIIAQLQVVAAAPDPALGREHLDRALALARHSLGEARRSVHNLSPVALAEDGLPDALKKTVTEWGARTGVQARFTVTGTAEHLHDEVAATLLRIAQEALSNTARHAAADRVGVTLSYMGDEVTLDIRDDGRGFDPLTARECGPGGGFGLDGMRARAERIAGSLTVEAEPGHGTAVSARVPLVRHDREGHHHHHH”, the “soluble on expression in E. coli” value was “soluble”.

Take “MGSDKIHHHHHHMQLVFDFPVNPKYSLDNFVICSGNETAYRFVRRLTDDEGAENLLYLHGPSGSGKTHLLMAIGAHFSARAGLSSVPCISFKDVDEVYGGEYPAEAVSKLAERFRNAPALLVDDLHLIPDQQAVRVELWQLFNDFYQAGRPIAITGLYPPKELPTIDDHLISRLLWGLVARVDISDDDSRRLIMKKLADDRQIVLPADVIDYLLLHVRRDVPSLIEALDAISRYALAAKRKVSVRLAREALAFHS”: the “soluble on expression in E. coli” value is reported as “not soluble”.

“MSLSLWQQCLARLQDELPATEFSMWIRPLQAELSDNTLALYAPNRFVLDWVRDKYLNNINGLLNTFCGADAPQLRFEVGTKPVTQTLKTPVHNVVAPAQTTTAQPQRVAPAARSGWDNVPAPAEPTYRSNVNVKHTFDNFVEGKSNQLARAAARQVADNPGGAYNPLFLYGGTGLGKTHLLHAVGNGIMARKPNAKVVYMHSERFVQDMVKALQNNAIEEFKRYYRSVDALLIDDIQFFANKERSQEEFFHTFNALLEGNQQIILTSDRYPKEINGVEDRLKSRFGWGLTVAIEPPELETRVAILMKKADENDIRLPGEVAFFIAKRLRSNVRELEGALNRVIANANFTGRAITIDFVREALRDLLALQEKLVTIDNIQKTVAEYYKIKIADLLSKRRSRSVARPRQMAMALAKELTNHSLPEIGDAFGGRDHTTVLHACRKIEQLREESHDIKEDFSNLIRTLSSLEHHHHHH”: the “soluble on expression in E. coli” value is recorded as “not soluble”.

Source of the values: the DeepSol protein solubility set.
